Laboratory results reported in US20220033515A1 (Genentech, published 2022).
Numbering of substitutions follows the chain as printed.

B1: bH4 (antibody, V domains shown)
VH: not shown
VL: DIQMTQSPSSLSASVGDRVTITCRASQDIRSGSVAWYQQKPGKAPKLLIYWGSYLYSGVPSRFSGSGSGTDFTLTISSLQPEDFATYYCQQHYTTPPTFGQGTKVEIKR
B2: bD2 IgG (antibody, V domains shown)
VH: not shown
VL: DIQMTQSPSSLSASVGDRVTITCRASQNIRNGGGLAWYQQKPGKAPKLLIYSASFLYSGVPSRFSGSGSGTDFTLTISSLQPEDFATYYCQQHYTTPPTFGQGTKVEIKR
notes: not shown: rest of the human IgG heavy chain constant region
B3: D1 hIgG (antibody, V domains shown)
VH: not shown
VL: DIQMTQSPSSLSASVGDRVTITCRASQNVSKHVAWYQQKPGKAPKLLIYWGSYLYSGVPSRFSGSGSGTDFTLTISSLQPEDFATYYCQQSYSGPPTFGQGTKVEIKR
notes: also called bD1 IgG; D1 (anti-hDR5/Her2); not shown: rest of the human IgG heavy chain constant region
B4: H3 Fab (Fab, V domains shown)
VH: not shown
VL: B1 VL with R30G, S31L, G52A
notes: also called bH3 Fab
B5: bH1 Fab (Fab, V domains shown)
VH: not shown
VL: DIQMTQSPSSLSASVGDRVTITCRASQDIPRSISGYVAWYQQKPGKAPKLLIYWGSYLYSGVPSRFSGSGSGTDFTLTISSLQPEDFATYYCQQHYTTPPTFGQGTKVEIKR
notes: also called bispecific bH1 Fab
B6: 4-5 (antibody, V domains shown)
VH: not shown
VL: DIQMTQSPSSLSASVGDRVTITCRASQNVGRPVAWYQQKPGKAPKLLIYGGSSLYSGVPSRFSGSGSGTDFTLTISSLQPEDFATYYCQQYGSFGTPPTFGQGTKVEIKR
B7: 20.49 (Fab, V domains shown)
VH: not shown
VL: B5 VL with Q27V, I29L, R31K, I33V, Y57F, Y96F, T98S
B8: 35.61 (Fab, V domains shown)
VH: not shown
VL: B5 VL with S26I, Q27E, D28N, I29L, R31K, S34T, Y57F, T97S, P99T, T101K
B9: 20.80 (Fab, V domains shown)
VH: not shown
VL: B5 VL with Q27E, R31K, Y57F, Y96F, T97S, T98S
B10: 35.21 (Fab, V domains shown)
VH: not shown
VL: B5 VL with I29L, R31K, Y57F, Y96F, T97S, T98S
B11: 35.25 (Fab, V domains shown)
VH: not shown
VL: B5 VL with S26I, D28K, I29V, S32T, S34T, Y57F, T98S
B12: 35.45 (Fab, V domains shown)
VH: not shown
VL: B5 VL with Q27E, R31K, S32T, I33V, Y57F, Y96F, T97S, T98S
B13: 35.74 (Fab, V domains shown)
VH: not shown
VL: B5 VL with S26I, R31K, S32T, S34T, Y57F, Y96F, T97N, T98S, T101K
B14: 20.52 (Fab, V domains shown)
VH: not shown
VL: B5 VL with S26I, Q27E, D28N, I29L, R31K, S32T, Y57F, Y96F, T97S, T98S
B15: 35.2 (Fab, V domains shown)
VH: not shown
VL: B5 VL with S26I, Q27E, I29L, R31K, S32T, I33V, Y57F, T97S, T98S
B16: 35.95 (Fab, V domains shown)
VH: not shown
VL: B5 VL with S26I, Q27E, D28N, I29L, R31K, I33V, Y57F, T98S
B17: 35.87 (Fab, V domains shown)
VH: not shown
VL: B5 VL with D28N, R31K, I33V, Y57F, Y96F, T97N, T98S
B18: 35.56 (Fab, V domains shown)
VH: not shown
VL: B5 VL with S26V, D28N, I29L, R31K, S32T, S34T, Y57F, T98I, T101K
B19: 20.93 (Fab, V domains shown)
VH: not shown
VL: B5 VL with S26V, Q27E, I29L, R31K, S32T, S34T, Y57F, Y96F, T101K
B20: 35.28 (Fab, V domains shown)
VH: not shown
VL: DIQMTQSPSSLSASVGDRVTITCRAIQNIAKTITGYVAWYQQKPGKAPKLLIYWGSFLYSGVPSRFSGSGSGTDFTLTISSLQPEDFATYYCQQHFNSPPKFGQGTKVEIKR
B21: clone 6 (scFv, V domains shown)
VH: not shown
VL: DIQMTQSPSSLSASVGDRVTITCRASQDIWRAVAWYQQKPGKAPKLLIYPASNLYSGVPSRFSGSGSGTDFTLTISSLQPEDFATYYCQQGYYIAPPTFGQGTKVEIK
B22: clone 67 (lower block) (scFv, V domains shown)
VH: not shown
VL: DIQMTQSPSSLSASVGDRVTITCRASQDIWRWLAWYQQKPGKAPKLLIYAGSSLYSGVPSRFSGSGSGTDFTLTISSLQPEDFATYYCQQHDQAPPTFGQGTKVEIK
B23: clone 12 (scFv, V domains shown)
VH: not shown
VL: DIQMTQSPSSLSASVGDRVTITCRASQDIGGGSVAWYQQKPGKAPKLLIYWGSFLYSGVPSRFSGSGSGTDFTLTISSLQPEDFATYYCQQHYTTPPTFGQGTKVEIK
B24: clone 27 (scFv, V domains shown)
VH: not shown
VL: DIQMTQSPSSLSASVGDRVTITCRASQYVYSTTVAWYQQKPGKAPKLLIYNGSSLYSGVPSRFSGSGSGTDFTLTISSLQPEDFATYYCQQASSAPPTFGQGTKVEIK
B25: clone 45 (scFv, V domains shown)
VH: not shown
VL: B23 VL with G30H, G31S, F54Y
B26: clone 75 (scFv, V domains shown)
VH: not shown
VL: DIQMTQSPSSLSASVGDRVTITCRASQDIPSIYVAWYQQKPGKAPKLLIYGASYLYSGVPSRFSGSGSGTDFTLTISSLQPEDFATYYCQQRYWVAPPTFGQGTKVEIK
B27: 3-3 (scFv, V domains shown)
VH: not shown
VL: B21 VL with D28Q, A32H, V33L, P50T, A51G, N53S, G91S, Y93W, I94V
notes: also called c3-3
B28: H6 (scFv, V domains shown)
VH: not shown
VL: DIQMTQSPSSLSASVGDRVTITCRASQYIWNYVAWYQQKPGKAPKLLIYGGSSLYSGVPSRFSGSGSGTDFTLTISSLQPEDFATYYCQQSWWAGPPTFGQGTKVEIK

Each binder was assayed against T1, HER2 extracellular domain (Her2-ECD) (human, UniProt P04626 23-652) (assay: equilibrium KD; method and format (Fab or IgG) not given; HER2, second number of the cell).
T1 construct: extracellular domain; also called hHER2 extracellular domain (ECD)
In the case of B1, the Kd is reported as 11 nM.

The binders below were run against T2, epidermal growth factor receptor extracellular domain (hEGFR) (human, UniProt P00533 25-645) (assay: ELISA on immobilised protein).
T2 construct: extracellular domain
B2: no binding (tested: 100 or 500 nM (text)). B3: no binding (tested: 100 or 500 nM (text)).

Each binder was assayed against T3, hVEGF-C (human, UniProt P49767 103-227) (assay: ELISA on immobilised protein).
T3 sequence (looked up): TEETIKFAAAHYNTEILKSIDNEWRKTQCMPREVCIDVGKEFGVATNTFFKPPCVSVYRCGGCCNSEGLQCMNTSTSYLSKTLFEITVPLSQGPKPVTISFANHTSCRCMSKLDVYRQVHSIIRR
B2: no binding (tested: 100 or 500 nM (text)). B3: no binding (tested: 100 or 500 nM (text)).

The binders below were run against T4, human vascular endothelial growth factor (hVEGF) (human, UniProt P15692-4 27-191) (assay: ELISA on immobilised protein).
T4 construct: also called hVEGF-A; human vascular endothelial growth factor A
B2: no binding (tested: 100 or 500 nM (text)). B3: no binding (tested: 100 or 500 nM (text)).

The binders below were run against bovine serum albumin (BSA) (bovine, UniProt P02769 25-607) (assay: ELISA on immobilised protein).
B2: no binding (tested: 100 or 500 nM (text)). B3: no binding (tested: 100 or 500 nM (text)).

What follows are binders tested against T5, hVEGF-D (human, UniProt O43915 93-201) (assay: ELISA on immobilised protein).
T5 sequence (looked up): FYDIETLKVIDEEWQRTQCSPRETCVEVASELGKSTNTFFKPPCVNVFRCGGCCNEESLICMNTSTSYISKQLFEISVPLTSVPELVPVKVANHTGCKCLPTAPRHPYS
B2: no binding (tested: 100 or 500 nM (text)). B3: no binding (tested: 100 or 500 nM (text)).

Each binder was assayed against T6, hVEGF109 (human, UniProt P15692 214-315) (assay: Biacore SPR).
T6 construct: range 8-109; also called VEGF (8-109)
T6 sequence (looked up): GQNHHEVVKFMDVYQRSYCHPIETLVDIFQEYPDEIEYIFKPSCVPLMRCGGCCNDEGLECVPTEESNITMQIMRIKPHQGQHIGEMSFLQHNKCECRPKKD
For B4, the Kd was 3930 nM.

Each binder was assayed against T1, HER2 extracellular domain (Her2-ECD) (assay: Biacore SPR).
B4 gave a Kd of 8 nM. B5 showed a Kd of 59 nM.

These binders were tested against T7, human death receptor 5 (hDR5) (human, UniProt O14763 56-210) (assay: equilibrium KD; method and format (Fab or IgG) not given).
T7 construct: also called DR5 long; hDR5-1f
For B6, the Kd was 150 nM.

These binders were tested against T1, HER2 extracellular domain (Her2-ECD) (assay: competition ELISA of phage-displayed Fab).
Binder B7 has an IC50 of 2.6 nM. Binder B5 has an IC50 of 2.1 nM. In the case of B8, the IC50 is reported as 7.1 nM. With B9 the IC50 was 2.2 nM. B10 gave an IC50 of 1.4 nM. Work on B11 yielded an IC50 of 0.4 nM. B12 gave an IC50 of 1.1 nM. Work on B13 yielded an IC50 of 0.7 nM. B14 was tested, and the IC50 was 3.1 nM. For B15, the IC50 was 3.5 nM. Work on B16 yielded an IC50 of 4.3 nM. For B17, the IC50 was 2.2 nM. In the case of B18, the IC50 is reported as 1.7 nM. B19 showed an IC50 of 3.8 nM. With B20 the IC50 was 0.6 nM.

Each binder was assayed against T6, hVEGF109 (assay: ELISA on immobilised target).
B2: no binding (tested: 100 nM (text)). B3: no binding (tested: 100 nM (text)).

Each binder was assayed against T8, murine VEGF (mVEGF) (murine, UniProt Q00731-2 27-190) (assay: ELISA on immobilised target).
T8 sequence (looked up): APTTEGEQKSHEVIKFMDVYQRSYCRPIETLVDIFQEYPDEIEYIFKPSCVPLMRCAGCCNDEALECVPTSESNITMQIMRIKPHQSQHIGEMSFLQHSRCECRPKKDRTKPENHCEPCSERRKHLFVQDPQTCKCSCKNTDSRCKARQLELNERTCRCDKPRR
B2: no binding (tested: 100 nM (text)). B3: no binding (tested: 100 nM (text)).

These binders were tested against T9, hVEGF165 (human, UniProt P15692-4 27-191) (assay: ELISA on immobilised target).
T9 construct: also called human VEGF165
B2: no binding (tested: 100 nM (text)). B3: no binding (tested: 100 nM (text)).

These binders were tested against T6, hVEGF109 (assay: single-spot competitive phage ELISA).
In the case of B21, the “% signal, SSC +/- 50 or 100nM VEGF” value is reported as 85.6% and the OD450 without competitor is reported as 2.12. With B22 the “% signal, SSC +/- 50 or 100nM VEGF” value was 85.8% and the OD450 without competitor was 1.05. B23 was tested, and the “% signal, SSC +/- 50 or 100nM VEGF” value was 81.3% and the OD450 without competitor was 2.23. In the case of B24, the “% signal, SSC +/- 50 or 100nM VEGF” value is reported as 95.7% and the OD450 without competitor is reported as 2.82. For B25, the “% signal, SSC +/- 50 or 100nM VEGF” value was 88.2% and the OD450 without competitor was 3.08. With B26 the “% signal, SSC +/- 50 or 100nM VEGF” value was 85.1% and the OD450 without competitor was 2.9.

What follows are binders tested against T1, HER2 extracellular domain (Her2-ECD) (assay: single-spot competitive phage ELISA).
Work on B27 yielded an OD450 without competitor of 0.05. For B28, the OD450 without competitor was 0.05. B21 gave an OD450 without competitor of 0.04. B22 showed an OD450 without competitor of 0.05. With B23 the OD450 without competitor was 0.04. B24 was tested, and the OD450 without competitor was 0.04. B25 was tested, and the OD450 without competitor was 0.05. Work on B26 yielded an OD450 without competitor of 0.07.
